Measurements: patent US20150322160A1 (Bayer, published 2015)

B1: MF-J Fab (Fab, V domains shown)
VH: QVELVQSGAEVKKPGESLKISCKGSGYSFTNYWIGWVRQMPGKGLEWMGVIMPSDSYTRYSPSFQGQVTISADKSISTAYLQWSSLKASDTAMYYCARYGHGMYGGALDVWGQGTLVTVSS
VL: DIVLTQSPATLSLSPGERATLSCRASQSVRSSRLAWYQQKPGQAPRLLIYGASKRATGVPARFSGSGSGTDFTLTISSLEPEDFATYYCQQYYDFPPTFGQGTKVEIKR
notes: Tested as Fab ('KD of Fab'); the Fab constant domains are not
B2: MOR 06640 Fab (Fab, V domains shown)
VH: QVQLVQSGAEVKKPGESLKISCKGSGYSFTNYWIGWVRQMPGKGLEWMGVIMPSDSYTRYSPSFQGQVTISADKSISTAYLQWSSLKASDTAMYYCARYGHGMYGGALDVWGQGTLVTVSS
VL: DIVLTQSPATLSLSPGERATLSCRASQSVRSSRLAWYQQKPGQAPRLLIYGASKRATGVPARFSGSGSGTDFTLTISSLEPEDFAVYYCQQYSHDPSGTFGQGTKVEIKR
notes: Tested as Fab ('KD of Fab'); the Fab constant domains are not; also called MOR6640
B3: MF-226 Fab (Fab, V domains shown)
VH: QVELVQSGAEVKKPGASVKVSCKASGYTFTGNYINWVRQAPGQGLEWMGIINPHGGDTKYAQKFQGRVTMTRDTSISTAYMELSSLRSEDTAVYYCARWHHGTWIFDYWGQGTLVTVSS
VL: DIVLTQPPSVSGAPGQRVTISCSGSSSNIGSNYVSWYQQLPGTAPKLLIYNDNQRPSGVPDRFSGSKSGTSASLAITGLQSEDEADYYCSTYDRRTFSVFGGGTKLTVLG
notes: as for B1
B4: MF-T Fab (Fab, V domains shown)
VH: QVELVQSGAEVKKPGESLKISCKGSGYSFTSYWIGWVRQAPGKGLEWMGIIDPGDSRTRYSPSFQGQVTISADKSISTAYLQWSSLKASDTAMYYCARGQLYGGTYMDGWGQGTLVTVSS
VL: DIALTQPASVSGSPGQSITISCTGTSSDIGGYNSVSWYQQHPGKAPKLMIYGVNNRPSGVSNRFSGSKSGNTASLTISGLQAEDEADYYCSSYDIESATPVFGGGTKLTVLG
notes: as for B1
B5: MF-J-SPDP-DM4 (antibody, V domains shown)
VH: QVELVQSGAEVKKPGESLKISCKGSGYSFTNYWIGWVRQMPGKGLEWMGVIMPSDSYTRYSPSFQGQVTISADKSISTAYLQWSSLKASDTAMYYCARYGHGMYGGALDVWGQGTLVTVSS
VL: DIVLTQSPATLSLSPGERATLSCRASQSVRSSRLAWYQQKPGQAPRLLIYGASKRATGVPARFSGSGSGTDFTLTISSLEPEDFATYYCQQYYDFPPTFGQGTKVEIKR
modifications: DM4 maytansinoid conjugated via SPDB (printed SPDP in Table 2) linker; DM4/Ab 2.8; attachment residues not stated
B6: MOR06640-SPDP-DM4 (antibody, V domains shown)
VH: QVQLVQSGAEVKKPGESLKISCKGSGYSFTNYWIGWVRQMPGKGLEWMGVIMPSDSYTRYSPSFQGQVTISADKSISTAYLQWSSLKASDTAMYYCARYGHGMYGGALDVWGQGTLVTVSS
VL: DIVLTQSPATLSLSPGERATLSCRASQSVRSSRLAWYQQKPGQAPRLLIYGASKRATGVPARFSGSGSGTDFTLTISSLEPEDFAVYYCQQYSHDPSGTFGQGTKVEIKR
modifications: DM4 maytansinoid conjugated via SPDB (printed SPDP in Table 2) linker; DM4/Ab 3.6; attachment residues not stated
B7: MF-226-SPDP-DM4 (antibody, V domains shown)
VH: QVELVQSGAEVKKPGASVKVSCKASGYTFTGNYINWVRQAPGQGLEWMGIINPHGGDTKYAQKFQGRVTMTRDTSISTAYMELSSLRSEDTAVYYCARWHHGTWIFDYWGQGTLVTVSS
VL: DIVLTQPPSVSGAPGQRVTISCSGSSSNIGSNYVSWYQQLPGTAPKLLIYNDNQRPSGVPDRFSGSKSGTSASLAITGLQSEDEADYYCSTYDRRTFSVFGGGTKLTVLG
modifications: DM4 maytansinoid conjugated via SPDB (printed SPDP in Table 2) linker; DM4/Ab 3.3; attachment residues not stated
B8: MF-T-SPDP-DM4 (antibody)
VH: QVELVQSGAEVKKPGESLKISCKGSGYSFTSYWIGWVRQAPGKGLEWMGIIDPGDSRTRYSPSFQGQVTISADKSISTAYLQWSSLKASDTAMYYCARGQLYGGTYMDGWGQGTLVTVSS
VL: DIALTQPASVSGSPGQSITISCTGTSSDIGGYNSVSWYQQHPGKAPKLMIYGVNNRPSGVSNRFSGSKSGNTASLTISGLQAEDEADYYCSSYDIESATPVFGGGTKLTVLGQDIVLTQPPSVSGAPGQRVTISCSGSSSNIGSNYVSWYQQLPGTAPKLLIYNDNQRPSGVPDRFSGSKSGTSASLAITGLQSEDEADYYCSTYDRRTFSVFGGGTKLTVLGQ
modifications: DM4 maytansinoid conjugated via SPDB (printed SPDP in Table 2) linker; DM4/Ab 3.6; attachment residues not stated

Molecular target: T1, mesothelin (40 kDa, C-terminal domain of the mesothelin precursor polypeptide) (Homo sapiens (Human), UniProt Q13421 296-598)
T1 construct: Antigen of the Fab KD values
Assay: KD of Fab; method not stated

T1 sequence (Q13421 other isoform, or with tags, fused parts or gaps limits assumed): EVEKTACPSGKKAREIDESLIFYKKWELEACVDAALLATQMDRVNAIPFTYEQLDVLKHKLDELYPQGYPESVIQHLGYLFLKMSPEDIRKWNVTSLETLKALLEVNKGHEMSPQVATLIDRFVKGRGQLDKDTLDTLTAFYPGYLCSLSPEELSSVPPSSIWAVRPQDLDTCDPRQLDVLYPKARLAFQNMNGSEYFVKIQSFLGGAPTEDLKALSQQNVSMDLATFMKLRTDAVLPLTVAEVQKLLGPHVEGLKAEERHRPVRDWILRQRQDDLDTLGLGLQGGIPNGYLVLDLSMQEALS

Point of comparison: B4, Kd 16.3 nM. Against it:
- B1 — 1.8-fold lower, 9.2 nM
- B2 — 86-fold lower, 0.19 nM
- B3 — 3.6-fold higher, 58.3 nM

Molecular target: mesothelin expressed on cells (transfected MiaPaCa-2, HT29 C2, CHO A9; endogenous HelaMatu, OVCAR-3) (Homo sapiens (Human), UniProt Q13421 296-598)
Assay: cell-based or functional assay

Sequence of mesothelin expressed on cells (transfected MiaPaCa-2, HT29 C2, CHO A9; endogenous HelaMatu, OVCAR-3) (Q13421 other isoform, or with tags, fused parts or gaps limits assumed): as above

Point of comparison: B6, “IC50 (nM), cell viability (WST-1), CHO A9* (Mesothelin+)” value 1.2 nM. Against it:
- B5 — 3.4-fold lower, 0.35 nM
- B7 — within 1.5-fold, 1.3 nM
- B8 — within 1.5-fold, 1 nM

Point of comparison: B6, “IC50 (nM), cell viability (WST-1), HT29 C2 (Mesothelin+)” value 0.21 nM. Against it:
- B5 — within 1.5-fold, 0.3 nM
- B7 — 38-fold higher, 8 nM
- B8 — 7.1-fold higher, 1.5 nM

Point of comparison: B5, “IC50 (nM), cell viability (WST-1), HelaMatu” value 0.2 nM. Against it:
- B6 — 3-fold higher, 0.6 nM
- B7 — 4.5-fold higher, 0.9 nM
- B8 — 2.2-fold higher, 0.45 nM

Point of comparison: B5, “IC50 (nM), cell viability (WST-1), MiaPaCa-2 (Mesothelin+)” value 1.4 nM. Against it:
- B6 — 3.9-fold lower, 0.36 nM
- B7 — 15-fold higher, 21 nM
- B8 — within 1.5-fold, 1.3 nM

Point of comparison: B6, “IC50 (nM), cell viability (WST-1), OVCAR-3” value 1.07 nM. Against it:
- B5 — within 1.5-fold, 0.9 nM
- B7 — 14-fold higher, 14.8 nM
- B8 — 2.6-fold higher, 2.8 nM
